Source: IntAct's records for PubMed 9389648

B1: Mothers against decapentaplegic homolog 2 (Homo sapiens), Q15796 (parent)
chain: MSSILPFTPPVVKRLLGWKKSAGGSGGAGGGEQNGQEEKWCEKAVKSLVKKLKKTGRLDELEKAITTQNCNTKCVTIPSTCSEIWGLSTPNTIDQWDTTGLYSFSEQTRSLDGRLQVSHRKGLPHVIYCRLWRWPDLHSHHELKAIENCEYAFNLKKDEVCVNPYHYQRVETPVLPPVLVPRHTEILTELPPLDDYTHSIPENTNFPAGIEPQSNYIPETPPPGYISEDGETSDQQLNQSMDTGSPAELSPTTLSPVNHSLDLQPVTYSEPAFWCSIAYYELNQRVGETFHASQPSLTVDGFTDPSNSERFCLGLLSNVNRNATVEMTRRHIGRGVRLYYIGGEVFAECLSDSAIFVQSPNCNQRYGWHPATVCKIPPGCNLKIFNNQEFAALLAQSVNQGFEAVYQLTRMCTIRMSFVKGWGAEYRRQTVTSTPCWIELHLNGPLQWLDKVLTQMGSPSVRCSSMS
partner: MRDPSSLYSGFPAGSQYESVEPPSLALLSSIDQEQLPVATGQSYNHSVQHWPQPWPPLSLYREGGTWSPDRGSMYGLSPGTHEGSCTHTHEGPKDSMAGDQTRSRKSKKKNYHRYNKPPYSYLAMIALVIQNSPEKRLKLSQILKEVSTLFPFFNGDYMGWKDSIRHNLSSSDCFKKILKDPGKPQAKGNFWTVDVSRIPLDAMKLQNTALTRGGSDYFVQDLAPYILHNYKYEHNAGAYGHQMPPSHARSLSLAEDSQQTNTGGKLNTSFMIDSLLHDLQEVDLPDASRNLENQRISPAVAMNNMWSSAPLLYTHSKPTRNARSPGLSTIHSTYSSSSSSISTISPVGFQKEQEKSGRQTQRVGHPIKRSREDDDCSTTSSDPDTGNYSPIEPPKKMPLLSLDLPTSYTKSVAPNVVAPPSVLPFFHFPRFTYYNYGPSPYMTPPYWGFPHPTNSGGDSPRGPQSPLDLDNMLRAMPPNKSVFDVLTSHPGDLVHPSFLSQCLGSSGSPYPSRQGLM

Variants of: B1
Conditions: with foxh1_xenla foxh1, P70056

Row | effect of a mutation on the interaction | Variant
1 | disrupting interaction | S464A;S465A;S467A
2 | disrupting interaction | D450E
